Test results taken from article doi:10.1101/2025.10.15.682582.

Legend:
[1] = biological target: Noregen, recombinant norrin-derived growth factor (human) (UniProt Q00604); experiment: intact LC/ES-MS
[2] = biological target: Noregen, recombinant norrin-derived growth factor (human) (UniProt Q00604); experiment: AUC

Chain of Noregen, recombinant norrin-derived growth factor (Q00604 25-133): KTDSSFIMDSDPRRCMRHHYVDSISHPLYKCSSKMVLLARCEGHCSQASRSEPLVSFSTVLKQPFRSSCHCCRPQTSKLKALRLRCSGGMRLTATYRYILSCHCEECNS

percent present as dimer [1]: 98%
stoichiometry N [1]: 2
percent of total content in the dimer peak [2]: 99.9%
stoichiometry N [2]: 2
Substance: Noregen, recombinant norrin-derived growth factor (from UniProt Q00604 25-133) (ligand)
